One may read the EC50 as the concentration that produces a half-maximal response. Low values mean a more potent agent, high ones a less potent agent.

These results are taken from patent publication US20250163180A1 (ABL BIO, published 2025).

Assay [1] concerns the target T1, human 4-1BB expressed on GloResponse NFkB-luc2/4-1BB Jurkat cells (Promega) (human, UniProt Q07011 24-255). As to the kind of experiment: cell-based or functional assay.
Assay [2] has as its target T1, human 4-1BB expressed on GloResponse …. As to the kind of experiment: cell-based or functional assay. The source holds these as a separate data set.
Assay [3] has the same target. As to the kind of experiment: cell-based or functional assay. This is another data set of the same source.
The target of assay [4] is T2, human 4-1BB-Fc protein (Sino Biological) (human, UniProt Q07011 24-186).
T2 construct: not shown: Fc part of the bought fusion protein
As to the kind of experiment: ELISA, plate coated with human 4-1BB-Fc at 0.1 ug/mL, detection with HRP-conjugated goat anti-human IgG. On the technique in general: ELISA stands for enzyme-linked immunosorbent assay.

T1 sequence (Q07011 24-255 limits assumed): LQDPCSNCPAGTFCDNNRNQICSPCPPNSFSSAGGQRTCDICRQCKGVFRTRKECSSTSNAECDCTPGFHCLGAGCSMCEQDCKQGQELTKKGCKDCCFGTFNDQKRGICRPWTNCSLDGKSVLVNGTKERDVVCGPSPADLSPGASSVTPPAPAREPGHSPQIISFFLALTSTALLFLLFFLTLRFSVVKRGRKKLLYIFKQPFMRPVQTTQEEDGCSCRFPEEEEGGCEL
T2 sequence (Q07011 24-186 limits assumed): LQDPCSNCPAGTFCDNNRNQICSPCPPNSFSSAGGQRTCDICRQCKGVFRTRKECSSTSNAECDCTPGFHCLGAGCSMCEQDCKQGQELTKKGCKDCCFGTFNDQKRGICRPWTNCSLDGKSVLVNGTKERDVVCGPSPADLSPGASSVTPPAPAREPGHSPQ

B1: Urelumab (antibody, V domains shown)
VH: QVQLQQWGAGLLKPSETLSLTCAVYGGSFSGYYWSWIRQSPEKGLEWIGEINHGGYVTYNPSLESRVTISVDTSKNQFSLKLSSVTAADTAVYYCARDYGPGNYDWYFDLWGRGTLVTVSS
VL: EIVLTQSPATLSLSPGERATLSCRASQSVSSYLAWYQQKPGQAPRLLIYDASNRATGIPARFSGSGSGTDFTLTISSLEPEDFAVYYCQQRSNWPPALTFGGGTKVEIK
For the molecule B1, in assay [1], the “EC50, FcγRIIb-dependent 4-1BB bioassay” value turned out to be 0.236 nM and the “Fold of induction (RLU), FcγRIIb-dependent 4-1BB bioassay” value was 196 fold. Besides, in assay [2], the “EC50, FcγRIIb-independent 4-1BB bioassay” value was found to be 0.52 nM and the “Fold of induction (RLU), FcγRIIb-independent 4-1BB bioassay” value is 15.6 fold. In assay [3], the “fold difference in EC50 with against without FcγRIIb CHO-K1 cells” value is 2.2 fold and the “fold difference in top RLU with against without FcγRIIb CHO-K1 cells” value turned out to be 13.5 fold.

B2: AB41 (antibody, human IgG4 S228P, kappa, V domains shown)
VH: QVQLQQSGAEVIKPGASVKLSCKASGYTFSSYWMHWVRQAPGQGLEWIGEINPGNGHTNYNEKFKSRATLTGDTSTSTVYMELSSLRSEDTAVYYCARSFTTARAFAYWGQGTLVTVSS
VL: DIVMTQSPAFLSVTPGEKVTITCRASQTISDYLHWYQQKPDQAPKLLIKYASQSISGIPSRFSGSGSGTDFTFTISSLEAEDAATYYCQDGHSFPPTFGQGTKLEIKR
notes: also called anti-4-1BB antibody AB41
For B2, the EC50 in assay [4] is 0.2 nM.

B3: 1A10 (antibody, human IgG4 S228P, lambda, V domains shown)
VH: EVQLLESGGGLVQPGGSLRLSCAASGFTFSSYDMSWVRQAPGKGLEWVSWISYSGGSIYYADSVKGRFTISRDNSKNTLYLQMNSLRAEDTAVYYCARDGQRNSMREFDYWGQGTLVTVSS
VL: QSVLTQPPSASGTPGRRVTISCSGSSSNIGNNYVTWYQQLPGTAPKLLIYADSHRPSGVPDRFSGSKSGTSASLAISGLRSEDEADYYCATWDYSLSGYVFGGGTKLTVLG
notes: also called anti-4-1BB antibody 1A10
The molecule B3 had an EC50 in assay [4] of 0.24 nM.

B4: 1A12 (antibody, human IgG4 S228P, lambda, V domains shown)
VH: EVQLLESGGGLVQPGGSLRLSCAASGFTFSGYDMSWVRQAPGKGLEWVSVIYPDDGNTYYADSVKGRFTISRDNSKNTLYLQMNSLRAEDAAVYYCAKHGGQKPTTKSSSAYGMDGWGQGTLVTVSS
VL: QSVLTQPPSASGTPGRRVTISCSGSSSNIGNNYVTWYQQLPGTAPKLLIYADSHRPSGVPDRFSGSKSGTSASLAISGLRSEDEADYYCATWDYSLSGYVFGGGTKLTVLG
notes: also called anti-4-1BB antibody 1A12
In assay [4], B4 gave an EC50 of 0.18 nM.
